Data published in patent US20230101046A1, “[…] LYMPHOMA KINASE […] ANTIGEN RECEPTORS AND METHODS OF USE” (The Children's Medical Center Corporation, published 2023).
Substitutions are numbered along the chain they refer to.

B1: ALK Antibody #3 (antibody, V domains shown)
VH: QVQLQQSGAELAKPGASVKLSCKASGYTFTNYWMHWVKQRPGQGLEWIGYINPSSGYTKYNQKFKDKATLTADKSSSTAYMQLSSLTYEDSAVYYCARDYYGSSSWFAYWGQGTLVTVSA
VL: DIVMTQSQRFMSTSVGDRVSVTCKASQNVGTNVAWYQQKPGQSPKALIYSASYRYSGVPDRFTGSGSGTDFTLTVSNVQSEDLAEYFCQQYNSYPYMYTFGGGTKLEIKR
B2: ALK Antibody #5 (antibody, V domains shown)
VH: B1 VH with N31S, N52K
VL: B1 VL with V75I
B3: ALK Antibody #7 (antibody, V domains shown)
VH: B1 VH with N31S, Y88F
VL: B1 VL with R9K, Q42H, V75I, Q90R, Y98F
B4: ALK Antibody #6 (antibody, V domains shown)
VH: DVKLVESGEGLVKPGGSLKLSCAASGFTFSSYAMSWVRQTPEKRLEWVTYISSGGDYIYYADTVKGRFTISRDNARNTLYLQMSSLKSEDTAMYYCTRERIWLRRFFDVWGTGTTVTVSS
VL: DIVMTQSQKFMSTSVGDRVSITCKASQNVGTAVAWYQLKPGQSPKLLIYSASNRFTGVPDRFTGSGSGTDFTLTISNMQSEDLADYFCQQYSSYPLTFGSGTKLEIKR
B5: ALK Antibody #4 (antibody, V domains shown)
VH: QVQLQQSGAELVKPGASVKISCKASGYAFSSYWVNWVKQRPGKGLEWIGQIYPGDGDTNYNGKFKGKATLTADKSSSTAYMQLSSLTSEDSAVYFCARSRGYFYGSTYDSWGQGTTLTVSS
VL: not shown
B6: ALK Antibody #1 (antibody, V domains shown)
VH: QVQLQQSGAELVKPGASVKISCKASGYAFSSYWMNWVKQRPGKGLEWIGQIYPGDGDTNYNGKFKGKATLTADKSSSTAYMQLSSLTSEDSAVYFCASYYYGSKAYWGQGTLVTVSA
VL: DIQMTQSPASLAASVGETVTITCRASENIYYSLAWYQQKQGKSPQLLIYNANSLEDGVPSRFSGSGSGTQYSMKINSMQPEDTATYFCKQAYDVPFTFGSGTKLEIKR

Target: human ALK receptor (human)
Sequence (chain, as listed by the source): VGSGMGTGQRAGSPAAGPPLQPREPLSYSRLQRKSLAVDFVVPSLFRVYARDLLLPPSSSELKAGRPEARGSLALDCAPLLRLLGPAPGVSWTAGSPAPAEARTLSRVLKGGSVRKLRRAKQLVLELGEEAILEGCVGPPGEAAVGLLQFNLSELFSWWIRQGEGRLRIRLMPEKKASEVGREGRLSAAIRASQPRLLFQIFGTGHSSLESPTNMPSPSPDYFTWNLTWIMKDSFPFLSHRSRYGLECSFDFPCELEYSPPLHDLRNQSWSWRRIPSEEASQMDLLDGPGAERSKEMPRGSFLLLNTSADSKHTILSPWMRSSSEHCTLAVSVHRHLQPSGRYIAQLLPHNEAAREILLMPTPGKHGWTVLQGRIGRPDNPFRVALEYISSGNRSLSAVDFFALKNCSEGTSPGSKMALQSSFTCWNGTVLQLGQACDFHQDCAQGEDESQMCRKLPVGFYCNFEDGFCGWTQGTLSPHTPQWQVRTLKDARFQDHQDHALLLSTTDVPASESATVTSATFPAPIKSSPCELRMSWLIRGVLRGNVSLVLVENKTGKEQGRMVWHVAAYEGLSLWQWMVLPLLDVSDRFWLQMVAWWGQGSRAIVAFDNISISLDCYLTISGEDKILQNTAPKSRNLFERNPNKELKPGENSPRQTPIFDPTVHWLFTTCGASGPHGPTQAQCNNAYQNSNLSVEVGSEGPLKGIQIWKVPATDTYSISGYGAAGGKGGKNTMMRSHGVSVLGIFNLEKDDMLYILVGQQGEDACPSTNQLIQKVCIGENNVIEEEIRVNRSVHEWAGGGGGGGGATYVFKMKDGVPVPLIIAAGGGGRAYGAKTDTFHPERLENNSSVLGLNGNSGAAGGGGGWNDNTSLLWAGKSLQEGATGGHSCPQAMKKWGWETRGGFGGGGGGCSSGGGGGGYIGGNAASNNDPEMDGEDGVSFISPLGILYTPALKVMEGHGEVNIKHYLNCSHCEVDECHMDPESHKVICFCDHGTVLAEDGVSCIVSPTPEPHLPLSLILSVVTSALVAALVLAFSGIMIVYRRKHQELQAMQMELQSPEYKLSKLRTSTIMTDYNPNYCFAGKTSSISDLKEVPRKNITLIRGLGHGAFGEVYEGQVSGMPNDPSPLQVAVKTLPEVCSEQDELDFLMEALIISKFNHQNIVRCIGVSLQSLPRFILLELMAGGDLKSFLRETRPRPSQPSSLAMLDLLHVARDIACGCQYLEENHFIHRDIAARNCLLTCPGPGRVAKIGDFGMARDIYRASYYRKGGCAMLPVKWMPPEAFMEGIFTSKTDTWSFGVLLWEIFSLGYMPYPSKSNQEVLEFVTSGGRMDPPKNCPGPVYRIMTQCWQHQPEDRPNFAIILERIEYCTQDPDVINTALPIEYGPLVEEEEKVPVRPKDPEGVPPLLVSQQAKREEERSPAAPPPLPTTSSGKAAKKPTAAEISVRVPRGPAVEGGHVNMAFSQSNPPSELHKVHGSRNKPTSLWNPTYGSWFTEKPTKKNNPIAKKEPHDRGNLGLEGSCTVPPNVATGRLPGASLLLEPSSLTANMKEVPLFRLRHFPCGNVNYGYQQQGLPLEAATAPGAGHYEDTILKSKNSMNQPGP
Test: apparent KD (KD^app), method not stated

Binder | Kd [pM]
B1 | 500
B2 | 500
B3 | 500
B4 | 400
B5 | 500
B6 | 350
